Results published in paper PMC3257569 (The Journal of Cell Biology, 2011).
Changes are numbered by the printed parent chain.

B1: recombinant Lsp1 (natural protein, S. cerevisiae, UniProt Q12230 1-341, looked up)
chain: MHRTYSLRNQRAPTAAELQAPPPPPSSTKSKFFGKASIASSFRKNAAGNFGPELARKLSQLVKTEKGVLRAMEVVASERREAAKQLSLWGADNDDDVSDVTDKLGVLIYELGELQDQFIDKYDQYRVTLKSIRNIEASVQPSRDRKEKITDEIAHLKYKDPQSTKIPVLEQELVRAEAESLVAEAQLSNITREKLKAAYSYMFDSLRELSEKFALIAGYGKALLELLDDSPVTPGEARPAYDGYEASRQIIMDAESALESWTLDMAAVKPTLSFHQTVDDVYEDEDGEEEEEPEIQNGDIPGQVVEEEEVEWTTEVPVDDEAHEADHHVSQNGHTSGSENI
B2: recombinant Pil1 (natural protein, S. cerevisiae, UniProt P53252 1-339, looked up)
chain: MHRTYSLRNSRAPTASQLQNPPPPPSTTKGRFFGKGGLAYSFRRSAAGAFGPELSRKLSQLVKIEKNVLRSMELTANERRDAAKQLSIWGLENDDDVSDITDKLGVLIYEVSELDDQFIDRYDQYRLTLKSIRDIEGSVQPSRDRKDKITDKIAYLKYKDPQSPKIEVLEQELVRAEAESLVAEAQLSNITRSKLRAAFNYQFDSIIEHSEKIALIAGYGKALLELLDDSPVTPGETRPAYDGYEASKQIIIDAESALNEWTLDSAQVKPTLSFKQDYEDFEPEEGEEEEEEDGQGRWSEDEQEDGQIEEPEQEEEGAVEEHEQVGHQQSESLPQQTTA
B3: recombinant pil1(4D) (natural protein, S. cerevisiae, UniProt P53252 1-339, looked up)
chain: B2 chain with S45D, S59D, S230D, T233D
B4: lsp1ΔN (domain or fragment, S. cerevisiae, UniProt Q12230 36-341, looked up)
chain: ASIASSFRKNAAGNFGPELARKLSQLVKTEKGVLRAMEVVASERREAAKQLSLWGADNDDDVSDVTDKLGVLIYELGELQDQFIDKYDQYRVTLKSIRNIEASVQPSRDRKEKITDEIAHLKYKDPQSTKIPVLEQELVRAEAESLVAEAQLSNITREKLKAAYSYMFDSLRELSEKFALIAGYGKALLELLDDSPVTPGEARPAYDGYEASRQIIMDAESALESWTLDMAAVKPTLSFHQTVDDVYEDEDGEEEEEPEIQNGDIPGQVVEEEEVEWTTEVPVDDEAHEADHHVSQNGHTSGSENI
B5: pil1ΔN (domain or fragment, S. cerevisiae, UniProt P53252 36-339, looked up)
chain: GGLAYSFRRSAAGAFGPELSRKLSQLVKIEKNVLRSMELTANERRDAAKQLSIWGLENDDDVSDITDKLGVLIYEVSELDDQFIDRYDQYRLTLKSIRDIEGSVQPSRDRKDKITDKIAYLKYKDPQSPKIEVLEQELVRAEAESLVAEAQLSNITRSKLRAAFNYQFDSIIEHSEKIALIAGYGKALLELLDDSPVTPGETRPAYDGYEASKQIIIDAESALNEWTLDSAQVKPTLSFKQDYEDFEPEEGEEEEEEDGQGRWSEDEQEDGQIEEPEQEEEGAVEEHEQVGHQQSESLPQQTTA

Columns and labels:
[1] = target: the molecule itself; assay: velocity sedimentation in a sucrose gradient
[2] = target: the molecule itself; assay: negative staining and EM

Protein	binding result [1]	binding result [2]
B1	binds	–
B2	binds	–
B3	–	binds
B4	–	binds
B5	–	binds
